Measured values as given in PMC10313831.

Target: RPA-MeGFP (Saccharomyces cerevisiae) (UniProt P22336+P26754+P26755)
Assay: single-molecule ssDNA curtains (TIRFM)
Details: 10 pM then 100 pM RPA; EMSA: 20 mM Tris-HCl pH 7.5, 150 (or 15) mM KCl, 1 mM DTT, 100 ug/mL BSA, 5 nM DNA, 30 C 10 min; curtains: 40 mM Tris-HCl pH 7.5, 150 or 15 mM NaCl, 2 mM …

Chain of RPA-MeGFP (Saccharomyces cerevisiae) (P22336 whole entry, chain 1 of 3): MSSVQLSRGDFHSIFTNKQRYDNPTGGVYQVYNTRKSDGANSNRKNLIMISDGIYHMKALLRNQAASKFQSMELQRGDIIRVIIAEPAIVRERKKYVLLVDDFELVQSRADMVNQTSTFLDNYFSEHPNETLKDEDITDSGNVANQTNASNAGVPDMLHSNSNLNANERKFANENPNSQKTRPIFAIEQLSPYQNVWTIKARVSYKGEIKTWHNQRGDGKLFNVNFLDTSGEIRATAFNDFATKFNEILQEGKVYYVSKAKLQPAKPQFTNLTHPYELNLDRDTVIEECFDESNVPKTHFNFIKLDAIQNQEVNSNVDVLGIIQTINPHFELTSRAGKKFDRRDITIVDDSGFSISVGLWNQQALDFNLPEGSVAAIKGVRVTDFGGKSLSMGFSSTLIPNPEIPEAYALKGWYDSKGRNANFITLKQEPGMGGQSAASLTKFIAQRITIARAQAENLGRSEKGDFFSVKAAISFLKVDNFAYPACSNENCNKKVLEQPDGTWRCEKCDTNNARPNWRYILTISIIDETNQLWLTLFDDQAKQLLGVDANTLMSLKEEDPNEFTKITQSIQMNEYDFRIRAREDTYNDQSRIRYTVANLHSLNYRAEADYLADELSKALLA
Chain of RPA-MeGFP (Saccharomyces cerevisiae) (P26754 whole entry, chain 2 of 3): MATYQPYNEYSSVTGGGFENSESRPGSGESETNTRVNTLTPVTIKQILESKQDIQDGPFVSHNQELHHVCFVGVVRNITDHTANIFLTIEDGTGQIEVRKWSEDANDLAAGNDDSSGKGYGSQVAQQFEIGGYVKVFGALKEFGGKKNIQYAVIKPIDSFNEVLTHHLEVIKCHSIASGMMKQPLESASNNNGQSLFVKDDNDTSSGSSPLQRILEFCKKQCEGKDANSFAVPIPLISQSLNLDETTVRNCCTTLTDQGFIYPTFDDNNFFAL
Chain of RPA-MeGFP (Saccharomyces cerevisiae) (P26755 whole entry, chain 3 of 3): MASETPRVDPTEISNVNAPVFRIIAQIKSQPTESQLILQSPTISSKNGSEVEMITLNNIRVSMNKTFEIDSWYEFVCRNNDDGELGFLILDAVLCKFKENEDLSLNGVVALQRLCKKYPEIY

M13 ssDNA
binding signal (% length extension): 359
